The target in data set [1] is T1, hrPrP23-231 (recombinant human prion protein, full length) (Homo sapiens, UniProt P04156 P04156:23-231). As to the kind of experiment: filter; no tRNA; 2 mM MgCl2, 250 mM NaCl, 37 C. As to conditions: tags: provided by Man-Sun Sy, Case Western; label: internal 32P.
In data set [2] the target is T1, hrPrP23-231 (recombinant human prion …). As to the kind of experiment: filter; […]; 2 mM MgCl2, 250 mM NaCl, 37 C; […]. Particulars: tags: provided by Man-Sun Sy, Case Western; label: internal 32P; G4 (AP1 insert).
The target in data set [3] is hrPrP90-231 (C-terminal portion) (Homo sapiens, UniProt P04156 P04156:90-231). Nature of the data set: filter; 20 nM protein; no detectable binding. As to conditions: tags: provided by Man-Sun Sy, Case Western, label: internal 32P.
In data set [4] the target is T2, hrPrP23-144 (N-terminal portion) (Homo sapiens, UniProt P04156 P04156:23-144). Nature of the data set: filter; 20 nM protein, no tRNA. As to conditions: tags: provided by Man-Sun Sy, Case Western; label: internal 32P.
The target in data set [5] is T2, hrPrP23-144 (N-terminal portion). As to the kind of experiment: filter; 20 nM protein, Buffer B with tRNA. As to conditions: tags: provided by Man-Sun Sy, Case Western; label: internal 32P.
Data set [6] concerns the target BSA (bovine serum albumin) (UniProt P02769 P02769:25-607). As to the kind of experiment: filter; Buffer A with 10 ng/uL tRNA; background level. As to conditions: tags: Ultra-pure BSA, Ambion; label: internal 32P.
The target in a further data set is lysozyme (UniProt P00698 P00698:19-147). Nature of the data set: filter; 2 nM RNA, 20 nM protein, Buffer A with 10 ng/uL tRNA; background level. As to conditions: label: internal 32P.
For data set [7], the target named is T1, hrPrP23-231 (recombinant human prion …). As to the kind of experiment: filter; with 10 ng/uL tRNA; 250 mM NaCl, 37 C. As to conditions: tags: provided by Man-Sun Sy, Case Western; label: internal 32P.

B1: RQT157 (ssRNA)
RNA: GGGGUUUCGAACCGGAAUUUGAGGGAUGCCUAGGCAUCCCCCGUGCGUCCCUUUACGAGGGAUUGUCGACUCUAGAGGAUCCGGUACCUGAGGGAUGCCUAGGCAUCCCCGCGCGCCGGUUUCGGACCUCCAGUGCGUGUUACCGCACUGUCGACCC
The Kd is the free concentration of one partner at which half of the binding sites on the other are occupied at equilibrium, for simple one-to-one binding. As for B1, the Kd in data set [1] is 56 nM.

B2: MNV:AP1 (PrP-Amp) (ssRNA)
RNA: GGGUUCAUAGCCUAUUCGGCUUCGCGCAUGGGAAUUUGAGGGACGAUGGGGAAGUGGGAGCGCGUUUUAAAGGACCUUUUUCCCUCGCGUAGCUAGCUACGCGAGGUGACCCCCCGAAGGGGGGUGCCCC
Turning to B2, the Kd in data set [2] was determined as 3.8 nM. In addition, in data set [3] (G4 (AP1 insert)), the binding result was “no binding”.

B3: MNV (ssRNA)
RNA: GGGUUCAUAGCCUAUUCGGCUUUUAAAGGACCUUUUUCCCUCGCGUAGCUAGCUACGCGAGGUGACCCCCCGAAGGGGGGUGCCCC
Regarding B3, the figures for the binding result in data set [4] and in data set [3] were “binds” and “no binding”, respectively.

B4: RQ11+12 (ssRNA)
RNA: GGGGUUUCCAACCGGAAUUUGAGGGAUGCCUAGGCAUCCCCCGUGCGUCCCUUUACGAGGGAUUGUCGACUCUAGUCGACGUCUGGGCGAAAAAUGUACGAGAGGACCUUUUCGGUACAGACGGUACCUGAGGGAUGCCUAGGCAUCCCCCGCGCCGGUUUCGGACCUCCAGUGCGUGUUACCGCACUGUCGACCC
With B4, the binding result in data set [5] is “binds”; in data set [6], “no binding”; in data set [3], “no binding”; with lysozyme, “no binding”.

In the case of GGGAAUUUGAGGACGAUGGUAAGUGG (ssRNA) [AP46], the results for the Kd in data set [7] and in data set [1] were 100 nM and 14 nM, respectively.
